In patent publication US20210277104A1 (Janssen / Centocor, published 2021):
Substitutions are numbered along the chain they refer to. Names and notes keep the numbering of the source.

B1: TNV148 (antibody, V domains shown)
VH: QVQLVESGGGVVQPGRSLRLSCAASGFIFSSYAMHWVRQAPGNGLEWVAFMSYDGSNKKYADSVKGRFTISRDNPKNTLYLQMNSLRAEDTAVYYCARDRGIAAGGNYYYYGMDVWGQGTTVTVSS
VL: EIVLTQSPATLSLSPGERATLSCRASQSVYSYLAWYQQKPGQAPRLLIYDASNRATGIPARFSGSGSGTDFTLTISSLEPEDFAVYYCQQRSNWPPFTFGPGTKVDIKR
B2: TNV196 (antibody, V domains shown)
VH: B1 VH with I28T, N43K, M51I, Y60S, I70V, P75S, Y80F, Y94F, A103G
VL: EIVLTQSPATLSLSPGERATLSCRASQSVYSYLAWYQQKPGQAPRLLIYDASNRATGIPARFSGSGSGTDFTLTISSLEPEDFAVYYCQQRSNWPPFTFGPGTKVDIK
B3: TNV86 (antibody, human IgG1, V domains shown)
VH: B1 VH
VL: B2 VL
notes: Totally human IgG1 kappa from hybridoma, tested as hybridoma supernatant; Variable regions identical to TNV148; also called GenTNV86.14.34; C417A

Experiments:
recombinant human TNFα [1] = target: T1, recombinant human TNFα (human, UniProt P01375 77-233, 125I-labeled in the receptor binding inhibition assay; unlabeled in the EIA); experiment: cell-based or functional assay
recombinant human TNFα [2] = target: T1, recombinant human TNFα; experiment: inhibition of 125I-TNFα binding to plate-coated p55-sf2; reference TNV118 and TNV14
Procedure: 50:1 of p55-sf2 at 0.5:g/ml in PBS was added to Optiplates to coat the wells during a one-hour incubation at 37° C. Serial dilutions of the eight TNV cell supernatants were prepared in 96-well round-bottom plates using PBS/0.1% BSA as diluent. […] The mixture was preincubated for one hour at RT. […] After 2 hrs at RT, Optiplates were washed three times with PBS-Tween. […] of Microscint-20 was added and the cpm bound determined using the TopCount […].
The concentrations of the TNV mAbs in their respective cell supernatants were first determined by standard ELISA analysis for human IgG.

recombinant human TNFα [3] = target: T1, recombinant human TNFα; experiment: Competition radioligand assay: inhibition of 5 ng/ml 125I-TNFα binding to plate-coated p55-sf2

| Binder | neutralizing TNFα bioactivity (recombinant human TNFα [1]) | fold better at blocking TNF binding than TNV118 and TNV14 (recombinant human TNFα [2]) | IC50 (read off the curve) (recombinant human TNFα [3]) |
| --- | --- | --- | --- |
| B1 | 4 fold | ~4 fold | ~4 ng/mL |
| B2 | 4 fold | – | ~4 ng/mL |
| B3 | – | ~4 fold | – |
